Results as given in publication PMC7809502.

Legend:
[1] = target: genome-edited CXCL12-HiBiT (human (endogenous in HEK293)) (UniProt P48061); assay: split reporter (BiFC, NanoBiT); NLuc complementation luminescence: supernatants from HEK293 cells expressing genome-edited CXCL12-HiBiT incubated with increasing concentrations of purified LgBiT; with surfen (10 uM)
[2] = target: genome-edited CXCL12-HiBiT (human (endogenous in HEK293)) (UniProt P48061); assay: split reporter (BiFC, NanoBiT); NLuc complementation luminescence: supernatants from HEK293 cells expressing genome-edited CXCL12-HiBiT incubated with increasing concentrations of purified LgBiT; with heparan sulfate (30 ug/mL)
purified HiBiT = assay: split reporter (BiFC, NanoBiT); NLuc complementation luminescence: purified HiBiT (1 nM) incubated with increasing concentrations of purified LgBiT; vehicle
[3] = target: genome-edited CXCL12-HiBiT (human (endogenous in HEK293)) (UniProt P48061); assay: split reporter (BiFC, NanoBiT); NLuc complementation luminescence: live HEK293 cells expressing genome-edited CXCL12-HiBiT incubated with increasing concentrations of purified LgBiT; vehicle
[4] = target: genome-edited CXCL12-HiBiT (human (endogenous in HEK293)) (UniProt P48061); assay: split reporter (BiFC, NanoBiT); NLuc complementation luminescence: supernatants from HEK293 cells expressing genome-edited CXCL12-HiBiT incubated with increasing concentrations of purified LgBiT; vehicle
[5] = target: genome-edited CXCL12-HiBiT (human (endogenous in HEK293)) (UniProt P48061); assay: split reporter (BiFC, NanoBiT); NLuc complementation luminescence: live HEK293 cells expressing genome-edited CXCL12-HiBiT incubated with increasing concentrations of purified LgBiT; with surfen (10 uM)

Kd [1]: 7.46 nM
Kd [2]: 16.1 nM
Kd (purified HiBiT): 7.15 nM
Kd [3]: 11.6 nM
Kd [4]: 17.5 nM
Kd [5]: 5.93 nM
Substance: LgBiT (18 kDa NLuc fragment)
